Results published in the RNAGym collection of RNA variant scans (doi:10.1073/pnas.2313332121).
This sample holds only a part of the variants without activity.

B1: TPR 5TU (parent)
chain: GGAUCUUCUCGAUCUAACAAAAAAGACAAAUCUGCCACAAAGCUUGAGAGCAUCUUCGGAUGCAGAGGCGGCAGCCUUCGGUGGCGCGAUAGCGCCAACGUUCUCAACUAUGACACGCAAAACGCGUGCUCCGUUGAAUGGAGUUUAUCAUG

Variants of: B1
Assay: polymerase ribozyme fitness, log enrichment relative to wild type (log ratio); higher = more active; in vitro selection for triplet polymerase activity
Outline: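 In triplicate, a single round of in vitro selection was run on each mutant library, PCR-built and transcribed, covering one subunit of a heterodimeric triplet polymerase ribozyme. Frozen incubation at −7 °C followed annealing with a biotinylated primer, partner subunit and triplets, and extended constructs were then gel-excised, streptavidin-captured and taken through RT-PCR. Fitness is the logarithm of genotype enrichment over wild-type enrichment, from inverse-variance-weighted replicate averages of Illumina-sequenced inputs and outputs. […] only genotypes with ≥10 input reads and ≥1 read per output were kept.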

Compared with GGAUCUUCUCGAUCUAACAAAAAAGACAAAUCUGCCACAAAGCUUGAGAGCAUCUUCGGCUGCAGAGACGGCAGCCUUCGGUGGCGCGAUAGCGAGAACGUUCUCAACUAUGACACGCAAAACGCGUGCUCCGGUGAAGGGAGUUUAUCAUG, GGAUCUUCUCGAUCUAACAAAAAAGACAAAUCUGCCACAAAGCUUGAGAGCAUCUUCGUAUGCAGAGGCGGCAGCCUUCGGUGGCGCGAUAGUGCCAACGUUCUCAACUAUGACACGCAAAACGCGUGCUCCGUUGAAUGGAGUUUAUCAUG is higher in “polymerase ribozyme fitness (log ratio)” value: at most -4.2 for the first, -3.08 for the second.

First: GGAUCUUCUCGAUCUAACAAAAAAGACAAAUCUGCCACAAAGCUUGAGAGCAUCUUCGCAUGCAGAGGCGGCAGCCUUCGGUGGCGCGAUAGCGCCAACGUUCUCAACUAUGACACGCAAAACGCGUGCUCCGUUGAAUGGAGUUUAACAUG
Second: GGAUCUUCUCGAUCUAACAAAAAAGACAAAUCUGCCACAAAGCUUGAGAGCAUCUUCGGCUGCAGAGGCGGCAGCCUUCGUUGGCGUGAUAGCGCCAACGUUCUCAACUAUGACACGCAAAACGCGUGCUCCGUUGAAUGGAGUUUAUCAUG
The “polymerase ribozyme fitness (log ratio)” value of the first is lower: -2.88 for the first, -2.07 for the second.

GGAUCUUCUCGAUCUAACAAAAAAGACAAAUCUGCCACAAAGCUUGAGAGCAUCUUCGUAUGCAGAGGCGGCAGCCUUCGGAGGCGCGAUAGAGCCAACGUUCUCAACUAUGACACGCAAAACGCGUGCUCCGUUGAAUGGCGUUUAUCAUG and GGAUCUUCUCGAUCUAACAAAAAAGACAAAUCUGCCACAAAGCUUGAGAGCAUCUUCGUAUGCAGAGGCGGCAGCCUUCGGUGGCGCUAUAGCUCCAACGUGCUCAACUAUGACACGCAAAACGCGUGCUCCGUUGAAUGGAGUUUGUCAUG cannot be ordered by “polymerase ribozyme fitness (log ratio)” value: at most -4.2 for the first, at most -4.2 for the second.

GGAUCUUCUCGAUCUAACAAAAAAGACAAAUCUGCCACAAAGCUUGAGAGCAUCUUCGUAUGCAGAGGCGGCAGCUUUCGGUUGCGCGAUAGCGCCAACGUGCUCAACUAUGACACGCAAAAAGCGUGCUCCGUUGAAUGGAGUUUAUCAUG and GGAUCUUCUCGAUCUAACAAAAAAGACAAAUCUGCCACAAAGCUUGAGAGCAUCUUCGUAUGCAGAGGCGGCAGCGUUCGGUGGCGCGAUGGCGCCAACGUUCUCCACUAUGAUACGCAAAACGUGUACUCCGUUGAAUGGAUUUUAUCAUG cannot be ordered by “polymerase ribozyme fitness (log ratio)” value: at most -4.2 for the first, at most -4.2 for the second.

First: GGAUCUUCUCGAUCUAACAAAAAAGACAAAUCUGCCACAAAGCUUGAGAGCAUCUUCGUAUGCCGAGGCGACAGCCUUCGGUGGCGCGAUAGCGCCAACGUUCUCAACUAUGACACUCAAAACGCGUGCUCCGUUGAAUGGAGUUUAUCAUG
Second: GGAUCUUCUCGAUCUAACAAAAAAGACAAAUCUGCCACAAAGCUUGAGAGCAUCUUCGGCUGCAGAGGCGUCAGCCUUCGGUGGCGCGAUACCGCCAACGUUCUCAAGUAUGACACACAAAACUCGUGCUCCGUUGCAUGGAGUUUAUCAUG
The “polymerase ribozyme fitness (log ratio)” value of the first is lower: at most -4.2 for the first, -4.08 for the second.

Going from GGAUCUUCUCGAUCUAACAAAAAAGACAAAUCUGCCACAAAGCUUGAGAGCAUCUUCGUAUGCAGAGGCGGCAGCCUUCGGUGGCGUGAUAGCGCCAACGUUCUCAACUAUGACACGCAAAACGCGUGCUCCGUUGAAUGGAGUUUAUCAUG to GGAUCUUCUCGAUCUAACAAAAAAGACAAAUCUGCCACAAAGCUUGAGAGCAUCUUCGGCUGCAGAGGCGGCAGCCUUCGGUGGUGCGAUAGCGCCAACGUUCUCAACUAUGACACGCCAAACACGUGCUCCGUUGAAUGGAGUUUAUCAUG, the “polymerase ribozyme fitness (log ratio)” value falls from -0.949 to -1.25.

GGAUCUUCUCGAUCUAACAAAAAAGACAAAUCUGCCACAAAGCUUGAGAGCAUCUUCGGCUGCAGAGGCGGCAGCCUUCGGUGGCGCGAUAGCGCCAAAGUUCUCAACUAUGGCACGCAAAACGCGGGCUCCGUUGAAUGGAGUUUAUCAUG and GGAUCUUCUCGAUCUAACAAAAAAGACAAAUCUGCCACAAAGCUUGAGAGCAUCUUCGUAUGCAGAGGCGGCAGCCUUCGGUGGCGAGAUAGCGCCUACGUUCUCAACUAUGACACGCAAAACGCGUGCUCCGUUGAAUGGAGUUUAUCAUG cannot be ordered by “polymerase ribozyme fitness (log ratio)” value: at most -4.2 for the first, at most -4.2 for the second.

Going from GGAUCUUCUCGAUCUAACAAAAAAGACAAAUCUGCCACAAAGCUUGAGAGCAUCUUCGUUUGCAGAGGCGGCAGCCUUCGGUGGAGCGAUAGCGCCAACGUUCUCAACUAUGACACGCAAAACGCGUGCUCCGUUGAAUGGAGUUUAUCAUG to GGAUCUUCUCGAUCUAACAAAAAAGACAAAUCUGCCACAAAGCUUGAGAGCAUCUUCGUAUGCAGAGGCGGCAGCCUUCGGUGGCACGAUAGCGCCAACGUUCUCAACUAUGACACGCAAAACGCGUGCUCCGUUGAAUGGAGUUUAUCAUG, the “polymerase ribozyme fitness (log ratio)” value rises from -2.59 to -1.19.

Going from GGAUCUUCUCGAUCUAACAAAAAAGACAAAUCUGCCACAAAGCUUGAGAGCAUCUUCGUAUGCAGAGGCGGCAGCCUUAGGUGGCACGGUAGCGCCAACGUUCUCAACUAUGACACGCAAAGCGCGUGCUCCGUUGAAUGCAGUUUAUCAUG to GGAUCUUCUCGAUCUAACAAAAAAGACAAAUCUGCCACAAAGCUUGAGAGCAUCUUCGUAUGCAGAGGCGGCAGCCUUCGGUGGCGCGAUAGCGCUAUCGUUCUCAACUAUGACACGCAAAACGCGUGCUCCGUUGAAUGGAGUUUAUCAUG, the “polymerase ribozyme fitness (log ratio)” value rises from at most -4.2 to -0.711.

In the case of GGAUCUUCUCGAUCUAACAAAAAAGACAAAUCUGCCACAAAGCUUGAGAGCAUCUUCGUAUGCAGAGGCGGCAGCCUUCGGUGGCGCGAUAGCGCCAACGUUCUCAACUAUGACACGCAAAACGCAUGCUCCGUUGAAUGGAGUUUAUCAUG, the “polymerase ribozyme fitness (log ratio)” value is reported as 0.622.
